From article PMC5790014, “Type IX secretion system PorM and gliding machinery GldM form arches spanning the periplasmic space” (Nature Communications, 2018)

Tests used:
[1] = target: the molecule itself; test: crystal structure; GldMp; sitting-drop vapor diffusion at 293K; 0.1 M Hepes pH 7-8, 26-46% (w/v) PEG 600; 2 Å
[2] = target: T1, PorMp315 (PorM periplasmic fragment, domains D3 and D4 in the crystal) (Porphyromonas gingivalis, UniProt B2RLE8); test: crystal structure; PorMp315/nb130, 1/1 complex at 10 mg/mL; 0.2 M ammonium citrate tribasic pH 7.0, 20% (w/v) PEG3350; 2.1 Å; conditions: both partners purified
T1 construct: PorM, Porphyromonas gingivalis, GI 188595218; cloned as residues 224-516, domain D2 was cleaved by a protease during crystallization, the structure spans residues 315-516; Construct cloned as 224-516 (pLIC03); the crystallised species is 315-516

[3] = target: the molecule itself; test: crystal structure; PorMp224; 0.02 M sodium acetate pH 4.8-5.8, 0.2 M zinc acetate, 15-25% (w/v) PEG3350; 2.85 Å
[4] = target: T2, PorMpNt (N-terminal domain D1 of the PorM periplasmic domain) (Porphyromonas gingivalis (sequence …)); test: crystal structure; PorMNt/nb01, 1/1 complex at 10 mg/mL; 0.1 M Hepes pH 7.5, 0.2 M NaCl, 25% (w/v) PEG3350; 2.4 Å; conditions: both partners purified
T2 construct: PorM, Porphyromonas gingivalis, GI 188595218, N-terminal domain D1; residues 30-212 by the results, residues 44-217 by the methods; the first helix (residues 30-69) is missing in the crystal, probably cleaved during crystallization; also called PorMNt

[5] = target: the molecule itself; test: crystal structure; PorMp315/nb130, 1/1 complex at 10 mg/mL; 0.2 M ammonium citrate tribasic pH 7.0, 20% (w/v) PEG3350; 2.1 Å

B1: GldM periplasmic domain (GldMp) (domain or fragment, Flavobacterium johnsoniae, UniProt Q5EGM3 36-513, looked up)
chain: FGLMNEKFEAANTSSVTTNESLLTSLDQKAAEAKGEFAKAAETAHKVQAASKEFYDYIGTLKTQAVKGFEVDKETGKMPYEAMDRGDNIDDWFTGDGYTKKGNEIIAKIEKYKSDIKAALGTDKKYAGIISEVEKKFDVSDVKNKEGIKEKYLAYHFKGFPAIASAAKLSAWQNDVKKTEADVYNSALGKAAVAAASYSNYQAIVVLDKNAYFQGEKVTGKVVLGRYDENTKPTSFQGPGQIVNGQAVISLTAGGVGEQDINGQFTFLEDGKNIPLKFSGKYVVVPRPNSATISADKMNVVYRGVVNPISVSFAGVDANKIVASAPGLSSAGKPGKYNMSPGQGTEATISVTGTLPNGDKVTDKKTFRIKGIPGPTGTIRGEMGVVKGPKSNLEIATIGAKLLDFDFEVGLDVVGFNMKIAGQPTVVVTGNKMNAQCKSVLARAGKGDQVTISEIKTKLVGAGSYLLPRTAPVIYEIQ
notes: GldM, Flavobacterium johnsoniae (ATCC17061), GI 58531935, periplasmic domain, residues 36-513; Cloned into pLIC03 (a pET28a+ derivative); A SeMet derivative was used for phasing
stoichiometry N [1]: 2

B2: nanobody nb130 (VHH)
VHH: QVQLVESGGGLVQAGGSLRLSCAASGRTFSSYVMGWFRQAPGKEREFVTAISWSGGSIHYADSVKGRFTISRDNAKNTVYLQMNSLKPEDTAVYTCVAGFAGYGSFTSRSARDSDKYDYWGQGTKVTVSS
notes: llama nanobody raised against PorMp; source: E. coli WK6, periplasmic fraction, purified (Ni-NTA, Superdex 75)
binding result [2]: binds

B3: PorMp224 (PorM periplasmic fragment, residues 224-516) (domain or fragment)
chain: RVNSITAQVIPQSQIVMSGDTYKANIVLSSVDTTQRPDVFVNGKLLSPENMGLFTATAGAPGTYPVKGYIEMMGNDGVKIRRDFESEYFVTEPMASVAPTMMNVLYAGIDNPINIAVPGVAQQNVSATINNGTLTRRGNLWIARPTKVGSEAIISVTAQSGGRTIQMAKTTLRVRALPDPLPYIEYKDVQGNTKRFKGGRLGKREILAAGGIKAALDDDLLEVNYTVVKFQLVFYDSMGNSIPEVSDGASFSERQKRQIQNLGKGKRFYVTEVIARGPDGIERKIPAIEVIVN
notes: PorM, Porphyromonas gingivalis, GI 188595218, tryptic fragment of the periplasmic domain, residues 224-516 (domains D2-D4); source: trypsin cleavage of PorMp (made in Rosetta E. coli cells), fragment purified
binding result [3]: binds

B4: nanobody nb01 (VHH)
VHH: DVQLVESGGGLVQAGGSLRVSCAASGRTFSSYSMGWFRQAPGKEREFVAAISRSDNSTYYADSVKGRFTISRDSAKNTVYLQMNSLKPEDTAVYYCAATPYGSRYYLRELREYDYWGQGTQVTVSS
notes: as for B2
binding result [4]: binds

B5: PorMp315 (PorM periplasmic fragment, domains D3 and D4 in the crystal) (domain or fragment, Porphyromonas gingivalis, UniProt B2RLE8 315-516, looked up)
chain: EPMASVAPTMMNVLYAGIDNPINIAVPGVAQQNVSATINNGTLTRRGNLWIARPTKVGSEAIISVTAQSGGRTIQMAKTTLRVRALPDPLPYIEYKDVQGNTKRFKGGRLGKREILAAGGIKAALDDDLLEVNYTVVKFQLVFYDSMGNSIPEVSDGASFSERQKRQIQNLGKGKRFYVTEVIARGPDGIERKIPAIEVIVN
notes: PorM, Porphyromonas gingivalis, GI 188595218; cloned as residues 224-516, domain D2 was cleaved by a protease during crystallization, the structure spans residues 315-516; Construct cloned as 224-516 (pLIC03); the crystallised species is 315-516
binding result [5]: binds
